The text below walks through data of patent publication US7470668B2, “Method of use of specific natriuretic peptide receptor c ligands, transgenic non-human mammals expressing specific natriuretic peptide receptor c antagonists and cells thereof” (Enobia Pharma Inc., priority 2005, dated 2008).

In one assay the target is T1, endogenous GC-A (Homo sapiens, UniProt P16066).
T1 sequence (P16066 33-1061): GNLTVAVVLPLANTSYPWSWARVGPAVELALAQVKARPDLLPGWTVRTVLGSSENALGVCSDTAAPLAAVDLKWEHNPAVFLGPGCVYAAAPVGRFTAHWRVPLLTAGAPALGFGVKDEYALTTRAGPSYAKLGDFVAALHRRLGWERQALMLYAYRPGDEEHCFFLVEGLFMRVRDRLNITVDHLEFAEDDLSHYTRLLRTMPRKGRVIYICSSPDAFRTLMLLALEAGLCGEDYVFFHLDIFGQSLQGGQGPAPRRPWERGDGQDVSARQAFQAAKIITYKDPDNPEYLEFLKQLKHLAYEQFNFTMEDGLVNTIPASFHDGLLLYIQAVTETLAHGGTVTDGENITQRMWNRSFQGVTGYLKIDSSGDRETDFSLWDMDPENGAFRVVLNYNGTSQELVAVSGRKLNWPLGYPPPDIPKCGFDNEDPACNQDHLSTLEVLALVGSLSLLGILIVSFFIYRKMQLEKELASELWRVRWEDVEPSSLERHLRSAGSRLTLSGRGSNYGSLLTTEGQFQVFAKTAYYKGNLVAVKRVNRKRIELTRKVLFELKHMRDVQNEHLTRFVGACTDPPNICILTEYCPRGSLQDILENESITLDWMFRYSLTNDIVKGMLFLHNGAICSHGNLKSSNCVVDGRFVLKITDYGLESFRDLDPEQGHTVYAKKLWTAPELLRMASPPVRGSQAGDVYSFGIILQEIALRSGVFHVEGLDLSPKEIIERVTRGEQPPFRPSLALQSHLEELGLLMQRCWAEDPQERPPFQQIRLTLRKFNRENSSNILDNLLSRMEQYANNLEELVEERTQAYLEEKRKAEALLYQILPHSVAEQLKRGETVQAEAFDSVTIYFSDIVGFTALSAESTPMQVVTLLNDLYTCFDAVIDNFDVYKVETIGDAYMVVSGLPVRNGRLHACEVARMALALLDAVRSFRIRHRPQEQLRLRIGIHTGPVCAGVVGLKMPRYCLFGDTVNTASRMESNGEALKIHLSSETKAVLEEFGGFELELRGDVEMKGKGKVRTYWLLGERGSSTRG
Kind of assay: ANP-stimulated cGMP in GFP-transfected HEK293 cells (endogenous GC-A). The settings on record: co-incubation with 10 nM peptide (data not shown).

The target of another assay is T2, NPR-C (Homo sapiens, UniProt P17342).
T2 construct: expressed in transfected cells; host or cells: HEK293, transient, pCDNA1.1 (CMV promoter)
T2 sequence (P17342 27-541): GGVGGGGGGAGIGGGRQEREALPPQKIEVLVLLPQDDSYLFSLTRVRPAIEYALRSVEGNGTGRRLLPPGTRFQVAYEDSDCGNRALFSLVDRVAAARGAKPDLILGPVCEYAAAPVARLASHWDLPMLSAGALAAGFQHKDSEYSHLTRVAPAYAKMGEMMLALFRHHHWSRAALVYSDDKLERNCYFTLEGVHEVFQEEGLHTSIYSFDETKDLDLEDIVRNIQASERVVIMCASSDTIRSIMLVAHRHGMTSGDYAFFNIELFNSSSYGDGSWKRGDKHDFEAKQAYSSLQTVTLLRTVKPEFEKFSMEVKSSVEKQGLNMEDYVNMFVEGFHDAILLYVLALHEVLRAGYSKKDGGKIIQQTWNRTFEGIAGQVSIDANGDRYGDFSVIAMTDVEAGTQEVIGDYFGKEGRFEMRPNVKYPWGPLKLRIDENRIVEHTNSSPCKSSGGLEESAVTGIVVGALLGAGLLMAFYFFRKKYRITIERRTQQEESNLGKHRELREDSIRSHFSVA
Kind of assay: ANP-stimulated cGMP in NPR-C overexpressing HEK293 cells. The assay is classed as cell-based. Conditions: NPR-C-expressing cells, 0.1 nM ANP plus 10 nM peptide. The text has this: The expression plasmid for rat GC-A containing the entire coding sequence cloned between the NheI-KpnI sites of CMV-driven pBK plasmid (Stratagene, La Jolla, Calif.) was kindly provided by Dr. A. De Léan (Département de Pharmacologie, Université de Montréal). The human NPR-C and GC-B coding sequences were amplified by RT-PCR from human embryonic kidney polyA RNA (Clontech, Palo Alto, Calif.) with the following primer pairs: NPR-C-5′-[…]-3′(forward) (SEQ ID NO: 74) and 5′-[…]-3′ (SEQ ID NO: 75) (reverse); GC-B-5′-[…]-3′ (SEQ ID NO: 76) (forward) and 5′-[…]-3′ (SEQ ID NO: 77) (reverse). The resulting PCR products were then cloned downstream of the CMV-promoter into the pCDNA1.1 plasmid (Invitrogen, Burlington, ON, Canada). All constructs were validated by DNA sequencing.

Method for endogenous GC-A: Binding studies were performed as described previously (Flanagan et al. 2000; Flanagan & Cheng 2000; Flanagan & Leder 1990). Briefly, HEK293 cells were transiently transfected with the appropriate expression plasmids (GC-A, GC-B, or NPR-C) or a negative control (CMV-based green fluorescent protein (GFP) expression plasmid (pQBlfc3, Qbiogene)). Forty-eight hours later, cells were washed twice with Hank's balanced salt solution (HBSS) containing 0.1% D-glucose, 0.5% BSA, 20 mM HEPES, and 0.05% NaN3. Binding of the PLAP-Ostn-containing conditioned media with or without the various peptides (500 μl total/well) was performed at 25° C. for 15 min. Cells were washed 6-times with HBSS for 5 min each, lysed with 10 mM Tris-HCl (pH 8) containing 0.1% Triton X-100 at 25° C., and endogenous alkaline phosphatase inactivated at 65° C. for 10 min. PLAP activity was measured in the linear range by a standard enzymatic assay using p-nitrophenyl phosphate as substrate (Sigma). For cGMP assays, cells were washed and incubated for 10 min in DMEM containing 0.25 mM IBMX and 0.1% BSA. Treatments were carried out in the presence of IBMX (Sigma) for 15 min and cells collected in ice-cold 65% ethanol. Cell extracts were assayed in duplicate following the manufacturers protocol.

B1: rhOstn[27-133]: N-terminal 6 histidine-tagged recombinant human Ostn amino acids 27-133 produced in E.coli, SEQ ID NO: 57 (protein)
chain: SVDVTTTEAFDSGVIDVQSTPTVREEKSATDLTAKLLLLDELVSLENDVIETKKKRSFSGFGSPLDRLSAGSVDHKGKQRKVVDHPKRRFGIPMDRIGRNRLSNSRG
modifications: N-terminal His6 tag; recombinant mature osteocrin
Turning to B1, the “effect on ANP signalling” value with endogenous GC-A is reported as “no effect”. Besides, in the assay with NPR-C, the “increase in cGMP levels (restored ANP signalling)” value was found to be 8 fold.
